From US20200407440A1, “AMATOXIN ANTIBODY-DRUG CONJUGATES AND USES THEREOF” (Magenta Therapeutics, Inc., priority 2019, published 2020) come the findings set out here.

Test [1] deals with human CD2 (human) (UniProt P06729). Kind of test: cell-based or functional assay.
The target is the same in test [2]. Kind of test: flow cytometry of primary human T cells at day 5; competition with the staining anti-CD2 clone RPA-2.10 [left panel]. For orientation: In flow cytometry, cells or beads pass a laser one at a time.

Sequence of UniProt P06729 (P06729 25-351 limits assumed): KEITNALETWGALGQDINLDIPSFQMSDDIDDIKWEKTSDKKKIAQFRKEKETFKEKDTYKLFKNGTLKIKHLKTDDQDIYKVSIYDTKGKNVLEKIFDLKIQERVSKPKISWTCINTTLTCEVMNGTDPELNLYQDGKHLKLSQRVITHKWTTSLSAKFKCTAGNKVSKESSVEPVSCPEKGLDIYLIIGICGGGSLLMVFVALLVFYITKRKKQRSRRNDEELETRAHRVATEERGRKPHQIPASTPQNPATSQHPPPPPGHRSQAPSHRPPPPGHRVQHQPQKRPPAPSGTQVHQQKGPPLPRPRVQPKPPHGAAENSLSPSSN

In the test with human CD2 (human) [1], “CD2 RPA2.10 D265C/H435A ADC A (antibody)” displayed a % Efficacy, primary human T cell killing assay of 85.7% and an IC50 (pM), primary human T cell killing assay (5 days, flow cytometry) of 54 pM. Also, in the test with human CD2 (human) [2], the IC50 (read off the curve) came out at 0.1 nM.

For the substance CD2 RPA naked (antibody), the IC50 (read off the curve) in the test with human CD2 (human) [2] worked out at 0.08 nM.
